Data published in paper PMC10343182, “Homogeneous Electrochemical Aptamer Sensor Based on Two-Dimensional Nanocomposite Probe and Nanochannel Modified Electrode for Sensitive Detection of Carcinoembryonic Antigen”.

Legend:
alpha fetoprotein (AFP) = target: T1, alpha fetoprotein (AFP) (UniProt P02771 19-609); test: electrochemical sensor (DPV), aptamer release from graphene oxide; Ru(NH3)6 3+, GO; PBS (sodium phosphate) 0.01 M, pH 7.4; GO 0.1 mg/mL, aptamer 1 uM, Ru(NH3)6 3+ 50 uM (optimum); temperature not stated; conditions: protein: commercial
T1 sequence: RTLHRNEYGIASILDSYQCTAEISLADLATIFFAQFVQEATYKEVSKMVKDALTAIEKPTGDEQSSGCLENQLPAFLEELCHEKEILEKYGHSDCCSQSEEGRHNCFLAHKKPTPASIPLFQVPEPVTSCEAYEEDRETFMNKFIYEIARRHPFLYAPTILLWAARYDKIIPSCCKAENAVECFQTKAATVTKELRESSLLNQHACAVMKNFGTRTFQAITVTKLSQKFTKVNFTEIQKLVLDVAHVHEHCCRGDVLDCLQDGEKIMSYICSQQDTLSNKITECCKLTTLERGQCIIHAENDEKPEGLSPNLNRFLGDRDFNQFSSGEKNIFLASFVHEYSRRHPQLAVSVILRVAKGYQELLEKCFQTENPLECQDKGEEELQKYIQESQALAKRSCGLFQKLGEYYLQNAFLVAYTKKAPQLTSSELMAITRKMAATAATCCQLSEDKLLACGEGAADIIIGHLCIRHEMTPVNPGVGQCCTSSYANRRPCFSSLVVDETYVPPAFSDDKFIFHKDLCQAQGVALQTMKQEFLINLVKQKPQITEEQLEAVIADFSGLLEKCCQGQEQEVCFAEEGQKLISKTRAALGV

[1] = target: cancer antigen 153 (CA153) (UniProt P15941 24-1097); test: as above; conditions: protein: commercial
[2] = target: prostate specific antigen (PSA) (UniProt P07288 25-261); test: as above; conditions: protein: commercial
C-reactive protein (CRP) = target: T2, C-reactive protein (CRP) (UniProt P02741 19-224); test: as above; conditions: protein: commercial; chain copies: 5
T2 sequence: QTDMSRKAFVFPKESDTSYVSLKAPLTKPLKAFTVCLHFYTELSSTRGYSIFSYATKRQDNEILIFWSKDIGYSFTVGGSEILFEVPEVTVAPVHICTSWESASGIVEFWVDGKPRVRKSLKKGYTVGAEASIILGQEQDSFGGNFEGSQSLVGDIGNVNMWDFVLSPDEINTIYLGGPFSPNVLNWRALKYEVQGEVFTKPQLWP

[3] = target: carcinoembryonic antigen (CEA) (UniProt P06731 35-685); test: electrochemical sensor (DPV/CV), aptamer release from graphene oxide; Ru(NH3)6 3+, GO; sensor LOD 14 fg/mL, linear 60 fg/mL-100 ng/mL (not Kd); PBS (sodium phosphate) 0.01 M, pH 7.4; GO 0.1 mg/mL, aptamer 1 uM, Ru(NH3)6 3+ 50 uM (optimum); temperature not stated; conditions: protein: commercial
carcinoembryonic antigen (CEA), sequence (P06731 35-685): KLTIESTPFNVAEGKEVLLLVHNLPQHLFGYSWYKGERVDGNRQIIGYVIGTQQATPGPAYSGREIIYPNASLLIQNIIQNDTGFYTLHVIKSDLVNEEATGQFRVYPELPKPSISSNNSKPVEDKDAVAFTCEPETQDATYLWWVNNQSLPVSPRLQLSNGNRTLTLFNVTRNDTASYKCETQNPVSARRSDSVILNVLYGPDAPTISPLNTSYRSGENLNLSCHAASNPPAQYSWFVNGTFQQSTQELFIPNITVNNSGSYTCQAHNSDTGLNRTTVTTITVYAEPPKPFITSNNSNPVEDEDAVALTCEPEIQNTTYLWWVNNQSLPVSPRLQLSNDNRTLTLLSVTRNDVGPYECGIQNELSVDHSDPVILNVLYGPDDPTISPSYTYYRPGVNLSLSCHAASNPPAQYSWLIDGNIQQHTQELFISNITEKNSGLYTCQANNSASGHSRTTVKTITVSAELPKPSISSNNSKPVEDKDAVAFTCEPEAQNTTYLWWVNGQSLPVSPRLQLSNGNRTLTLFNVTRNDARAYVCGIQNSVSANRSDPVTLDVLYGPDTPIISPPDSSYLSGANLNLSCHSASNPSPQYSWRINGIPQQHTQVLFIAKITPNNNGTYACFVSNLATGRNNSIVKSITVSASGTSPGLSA

prostate specific antigen (PSA), sequence (P07288 25-261): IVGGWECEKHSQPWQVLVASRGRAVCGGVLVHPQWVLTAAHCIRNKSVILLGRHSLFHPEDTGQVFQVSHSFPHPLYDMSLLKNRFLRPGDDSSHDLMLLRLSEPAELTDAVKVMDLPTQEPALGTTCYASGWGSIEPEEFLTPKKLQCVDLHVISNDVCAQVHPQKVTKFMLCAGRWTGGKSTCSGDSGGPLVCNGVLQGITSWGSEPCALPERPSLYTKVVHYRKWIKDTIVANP
cancer antigen 153 (CA153), sequence (P15941 24-1097): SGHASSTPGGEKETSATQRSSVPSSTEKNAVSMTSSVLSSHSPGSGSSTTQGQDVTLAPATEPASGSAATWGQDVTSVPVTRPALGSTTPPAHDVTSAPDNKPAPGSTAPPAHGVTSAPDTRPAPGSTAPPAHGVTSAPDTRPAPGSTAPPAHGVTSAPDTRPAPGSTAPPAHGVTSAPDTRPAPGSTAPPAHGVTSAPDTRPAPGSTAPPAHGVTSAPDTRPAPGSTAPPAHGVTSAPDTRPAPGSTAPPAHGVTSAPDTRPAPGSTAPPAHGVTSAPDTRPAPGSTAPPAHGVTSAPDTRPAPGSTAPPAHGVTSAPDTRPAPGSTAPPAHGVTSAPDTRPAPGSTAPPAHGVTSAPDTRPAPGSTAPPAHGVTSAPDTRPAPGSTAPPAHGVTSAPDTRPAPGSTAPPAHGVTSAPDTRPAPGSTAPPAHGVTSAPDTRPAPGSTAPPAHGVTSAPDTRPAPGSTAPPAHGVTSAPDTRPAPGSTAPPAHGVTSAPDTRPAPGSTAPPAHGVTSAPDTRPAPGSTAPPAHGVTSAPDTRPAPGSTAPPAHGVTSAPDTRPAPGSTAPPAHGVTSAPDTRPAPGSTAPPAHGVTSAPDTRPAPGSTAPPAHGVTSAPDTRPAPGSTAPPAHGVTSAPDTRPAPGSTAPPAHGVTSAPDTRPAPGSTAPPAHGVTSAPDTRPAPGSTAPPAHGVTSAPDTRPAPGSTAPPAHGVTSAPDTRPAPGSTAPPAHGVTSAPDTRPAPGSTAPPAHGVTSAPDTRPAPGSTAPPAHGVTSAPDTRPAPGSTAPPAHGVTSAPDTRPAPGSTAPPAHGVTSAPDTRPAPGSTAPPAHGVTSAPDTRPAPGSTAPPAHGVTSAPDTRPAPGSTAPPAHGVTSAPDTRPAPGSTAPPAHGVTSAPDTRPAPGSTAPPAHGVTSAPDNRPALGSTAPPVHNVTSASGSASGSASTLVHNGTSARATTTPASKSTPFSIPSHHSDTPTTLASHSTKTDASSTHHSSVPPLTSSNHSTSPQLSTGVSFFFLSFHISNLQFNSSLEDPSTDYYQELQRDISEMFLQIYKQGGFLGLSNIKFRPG

**Q.** What does the source list for ATACAGCTTCAATT (ssDNA, 3'-NH2) [CEA aptamer (Apt)]?
**A.** binding result (alpha fetoprotein (AFP)): no binding; binding result [1]: no binding; binding result [2]: no binding; binding result (C-reactive protein (CRP)): no binding; binding result [3]: binds
